Experimental data: patent publication US20240425593A1
Where two headings read alike, the source gives them in different places.

How the values were obtained:
monkey PD-1-hFc (monkey) [1] = test: ELISA, coated monkey PD-1-hFc
CD64 protein = CD64 protein (UniProt P12314); test: BLI (Octet ForteBio), CD64 on SA biosensor, antibody in solution
monkey PD-1-hFc (monkey) [2] = test: ELISA, coated monkey PD-1-hFc; remark: listed apart in the source
FcRn protein = FcRn protein (UniProt P55899); test: BLI (Octet ForteBio), FcRn on SA biosensor, antibody in PBST pH6.0
human PD-1-His (human) = human PD-1-His (human) (UniProt Q15116); test: BLI (Octet ForteBio), antibody on ProA biosensor, PD-1-His in solution
[3] = target: PD-1 on Jurkat-PD-1-NFAT cells (UniProt Q15116); test: cell-based or functional assay
[4] = target: human PD-1-ECD-mFc (human; mouse) (UniProt Q15116); test: ELISA, coated human PD-1-mFc
[5] = target: full-length human PD-1 on CHO-hPD-1 cells (human) (UniProt Q15116); test: flow cytometry on CHO-hPD-1 cells with FITC-labeled antibody
[6] = target: full-length human PD-1 on CHO-hPD-1 cells (human) (UniProt Q15116); test: flow cytometry, FITC-labelled antibody on CHO-hPD-1 cells

Sequence of monkey PD-1-hFc (monkey) (chain, as listed by the source limits assumed): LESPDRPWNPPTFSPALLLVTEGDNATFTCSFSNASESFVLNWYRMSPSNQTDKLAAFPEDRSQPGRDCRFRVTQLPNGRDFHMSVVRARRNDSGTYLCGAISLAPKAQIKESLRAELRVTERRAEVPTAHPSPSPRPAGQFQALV
Sequence of control antibody 3 (tirelizumab, IMGT ID: 757) (HC): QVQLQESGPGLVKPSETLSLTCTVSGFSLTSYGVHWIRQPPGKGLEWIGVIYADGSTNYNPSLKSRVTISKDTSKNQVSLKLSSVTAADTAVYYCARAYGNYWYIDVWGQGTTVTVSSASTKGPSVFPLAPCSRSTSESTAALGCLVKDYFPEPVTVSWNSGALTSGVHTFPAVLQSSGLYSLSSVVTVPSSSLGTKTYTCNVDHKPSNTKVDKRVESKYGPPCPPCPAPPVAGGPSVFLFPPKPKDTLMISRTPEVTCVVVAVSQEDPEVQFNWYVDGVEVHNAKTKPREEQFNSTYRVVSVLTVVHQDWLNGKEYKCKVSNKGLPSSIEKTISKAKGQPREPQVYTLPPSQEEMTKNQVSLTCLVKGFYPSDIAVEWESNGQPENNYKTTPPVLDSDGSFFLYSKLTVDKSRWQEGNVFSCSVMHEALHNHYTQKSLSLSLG
Sequence of control antibody 3 (tirelizumab, IMGT ID: 757) (LC): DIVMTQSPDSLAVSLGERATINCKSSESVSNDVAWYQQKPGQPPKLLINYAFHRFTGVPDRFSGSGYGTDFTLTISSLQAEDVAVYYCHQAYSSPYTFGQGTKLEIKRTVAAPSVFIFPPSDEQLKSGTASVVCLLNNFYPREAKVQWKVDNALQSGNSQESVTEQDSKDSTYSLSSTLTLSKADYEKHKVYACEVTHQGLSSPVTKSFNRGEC
Sequence of FcRn protein (P55899 24-297 limits assumed, chain 1 of 2): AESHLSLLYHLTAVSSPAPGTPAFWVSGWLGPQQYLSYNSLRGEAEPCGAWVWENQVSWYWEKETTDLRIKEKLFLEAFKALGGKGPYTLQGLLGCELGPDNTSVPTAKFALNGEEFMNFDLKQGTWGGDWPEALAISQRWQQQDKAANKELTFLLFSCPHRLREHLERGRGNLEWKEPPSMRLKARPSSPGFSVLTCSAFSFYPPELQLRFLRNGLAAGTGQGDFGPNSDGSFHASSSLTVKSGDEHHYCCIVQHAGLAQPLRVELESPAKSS
Sequence of FcRn protein (chain, as listed by the source limits assumed, chain 2 of 2): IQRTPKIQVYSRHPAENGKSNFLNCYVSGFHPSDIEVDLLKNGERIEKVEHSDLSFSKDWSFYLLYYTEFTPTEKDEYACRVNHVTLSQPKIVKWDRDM
Sequence of full-length human PD-1 on CHO-hPD-1 cells (human) (Q15116 25-288): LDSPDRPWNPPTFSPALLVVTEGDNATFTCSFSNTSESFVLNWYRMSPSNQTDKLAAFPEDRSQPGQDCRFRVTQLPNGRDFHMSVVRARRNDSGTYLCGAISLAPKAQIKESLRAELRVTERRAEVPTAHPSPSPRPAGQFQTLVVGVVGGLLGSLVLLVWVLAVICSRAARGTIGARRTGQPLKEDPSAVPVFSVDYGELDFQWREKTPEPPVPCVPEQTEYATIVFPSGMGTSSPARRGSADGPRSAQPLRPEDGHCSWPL
Sequence of human PD-1-ECD-mFc (human; mouse) (Q15116 25-170): as the sequence (chain, as listed by the source limits assumed) above, with E2D, L19V, A35T, R67Q, A144T counted along it
Sequence of human PD-1-His (human) (Q15116 25-170): as the sequence (chain, as listed by the source limits assumed) above, with E2D, L19V, A35T, R67Q, A144T counted along it
Sequence of PD-1 on Jurkat-PD-1-NFAT cells (Q15116 25-288 limits assumed): as the sequence (Q15116 25-288) above
Sequence of CD64 protein (P12314 16-288 limits assumed): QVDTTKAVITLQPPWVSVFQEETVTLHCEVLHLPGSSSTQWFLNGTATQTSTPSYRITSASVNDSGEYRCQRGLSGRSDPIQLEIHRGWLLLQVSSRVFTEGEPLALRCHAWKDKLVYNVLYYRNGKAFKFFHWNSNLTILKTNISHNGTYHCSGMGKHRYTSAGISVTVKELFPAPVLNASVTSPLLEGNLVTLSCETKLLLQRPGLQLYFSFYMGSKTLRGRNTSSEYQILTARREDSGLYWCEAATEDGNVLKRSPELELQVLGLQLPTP

| Substance | EC50 (monkey PD-1-hFc (monkey) [1]) | Kd (CD64 protein) | EC50 (monkey PD-1-hFc (monkey) [2]) | Kd (FcRn protein) | Kd (human PD-1-His (human)) | EC50 by the PD-1/PD-L1 luciferase reporter system [3] | EC50 [4] | EC50 (read off the curve) [5] | EC50 [6] |
| --- | --- | --- | --- | --- | --- | --- | --- | --- | --- |
| control antibody 1 (pembrolizumab, IMGT ID: 472) | 0.131 nM | 6.94 nM | 0.32 nM | 16.8 nM | – | – | – | – | – |
| control antibody 3 (tirelizumab, IMGT ID: 757) | – | – | 0.278 nM | 14.5 nM | 5.95 nM | 3.79 nM | 0.121 nM | 10 ng/mL | 0.094 nM |
